In patent US20200247855A1, “THERAPY AND DIAGNOSTICS” (OXFORD UNIVERSITY INNOVATION LIMITED, priority 2017, published 2020):

Experiments:
[1] = biological target: T1, CCL11_HUMAN (Homo sapiens, UniProt P51671); experiment: Yeast surface display (YSD) FACS binding
In short: (§1)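 Yeast clones displaying tick peptides were re-tested by FACS with labelled chemokine. Binding = % of peptide-expressing yeast above a background threshold set with streptavidin-Alexa647 alone; the mean percent shift was used where several clones were isolated. Confirmed binding ("YES") required >3-fold over background mean fluorescence intensity.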

[2] = biological target: T2, CCL5_HUMAN (Homo sapiens, UniProt P13501); experiment: Yeast surface display (YSD) FACS binding
T2 sequence (P13501 24-91): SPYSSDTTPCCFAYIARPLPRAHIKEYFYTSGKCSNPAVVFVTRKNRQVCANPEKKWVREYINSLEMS
In short: as §1

[3] = biological target: CXCL12_HUMAN (Homo sapiens, UniProt P48061); experiment: Yeast surface display (YSD) FACS binding; conditions: yeast surface display
CXCL12_HUMAN, sequence (P48061 22-93): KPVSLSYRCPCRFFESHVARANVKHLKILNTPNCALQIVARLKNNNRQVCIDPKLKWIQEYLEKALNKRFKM
In short: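 Yeast clones displaying tick peptides were re-tested by FACS with labelled chemokine detected by streptavidin-Alexa conjugate. Binding was scored as % of peptide-expressing cells above a background set with streptavidin-Alexa alone, averaged over independent clones. In the screen tables, >3-fold over background mean fluorescence intensity was scored as binding.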

[4] = biological target: T3, CCL18_HUMAN (Homo sapiens, UniProt P55774); experiment: Yeast surface display (YSD) FACS binding
T3 sequence (P55774 21-89): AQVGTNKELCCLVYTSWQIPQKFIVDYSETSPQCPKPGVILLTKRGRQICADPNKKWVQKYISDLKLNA
In short: as §1

[5] = biological target: T4, CCL25_HUMAN (Homo sapiens, UniProt O15444); experiment: Yeast surface display (YSD) FACS binding
T4 sequence (O15444 24-150): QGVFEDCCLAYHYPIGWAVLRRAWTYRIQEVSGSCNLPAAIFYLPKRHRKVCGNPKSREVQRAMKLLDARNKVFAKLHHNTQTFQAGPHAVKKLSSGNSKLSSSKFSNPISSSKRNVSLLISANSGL
In short: as §1

[6] = biological target: T5, CCL3_HUMAN (Homo sapiens, UniProt P10147); experiment: Biolayer interferometry (BLI) binding
T5 sequence (P10147 24-92): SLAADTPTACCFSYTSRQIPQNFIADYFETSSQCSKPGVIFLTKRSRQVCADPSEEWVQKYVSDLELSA
In short: (§2)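 Binding was measured by biolayer interferometry with the His-tagged tick protein bound to Ni-NTA sensors. A single-concentration screen used chemokine at 300 nM. Chemokines that bound were retested over multiple doses, and Kd was calculated from fitted curves.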

[7] = biological target: T6, CCL4L1_HUMAN (Homo sapiens, UniProt Q8NHW4); experiment: Biolayer interferometry (BLI) binding
T6 sequence (Q8NHW4 24-92): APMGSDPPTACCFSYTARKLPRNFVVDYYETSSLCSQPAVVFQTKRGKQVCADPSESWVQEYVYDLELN
In short: as §2

[8] = biological target: CCL2_HUMAN (Homo sapiens, UniProt P13500); experiment: Biolayer interferometry (BLI) binding
CCL2_HUMAN, sequence (P13500 24-99): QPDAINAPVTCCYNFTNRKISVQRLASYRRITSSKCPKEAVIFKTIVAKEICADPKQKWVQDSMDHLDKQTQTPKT
In short: as §2

[9] = biological target: T7, CCL8_HUMAN (Homo sapiens, UniProt P80075); experiment: Biolayer interferometry (BLI) binding; conditions: read-out: Kd, CCL8_HUMAN
T7 sequence (P80075 24-99): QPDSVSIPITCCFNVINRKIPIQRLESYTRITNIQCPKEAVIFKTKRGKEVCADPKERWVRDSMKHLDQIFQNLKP
In short: as §2

[10] = biological target: T1, CCL11_HUMAN; experiment: Biolayer interferometry (BLI) binding
In short: as §2

[11] = biological target: T8, CCL4_HUMAN (Homo sapiens, UniProt P13236); experiment: Biolayer interferometry (BLI) binding
T8 sequence (P13236 24-92): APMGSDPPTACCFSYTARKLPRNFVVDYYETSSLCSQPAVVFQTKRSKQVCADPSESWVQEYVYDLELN
In short: as §2

[12] = biological target: CCL3L1_HUMAN (Homo sapiens, UniProt P16619); experiment: Biolayer interferometry (BLI) binding
CCL3L1_HUMAN, sequence (P16619 24-93): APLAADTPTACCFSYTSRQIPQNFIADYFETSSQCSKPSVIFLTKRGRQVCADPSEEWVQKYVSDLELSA
In short: as §2

[13] = biological target: T9, CCL24_HUMAN (Homo sapiens, UniProt O00175); experiment: Biolayer interferometry (BLI) binding
T9 sequence (O00175 27-119): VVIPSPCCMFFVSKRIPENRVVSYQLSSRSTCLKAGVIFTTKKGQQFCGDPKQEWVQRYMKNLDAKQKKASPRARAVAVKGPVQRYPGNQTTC
In short: as §2

[14] = biological target: T2, CCL5_HUMAN; experiment: Biolayer interferometry (BLI) binding
In short: as §2

[15] = biological target: CCL13_HUMAN (Homo sapiens, UniProt Q99616); experiment: Biolayer interferometry (BLI) binding
CCL13_HUMAN, sequence (Q99616 17-98): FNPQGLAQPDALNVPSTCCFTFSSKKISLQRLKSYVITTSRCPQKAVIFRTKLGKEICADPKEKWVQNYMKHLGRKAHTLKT
In short: as §2

[16] = biological target: CCL7_HUMAN (Homo sapiens, UniProt P80098); experiment: Biolayer interferometry (BLI) binding
CCL7_HUMAN, sequence (P80098 24-99): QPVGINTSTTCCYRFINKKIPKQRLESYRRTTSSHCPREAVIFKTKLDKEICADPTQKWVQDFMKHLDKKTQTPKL
In short: as §2

[17] = biological target: T10, CCL16_HUMAN (Homo sapiens, UniProt O15467); experiment: Biolayer interferometry (BLI) binding
T10 sequence (O15467 24-120): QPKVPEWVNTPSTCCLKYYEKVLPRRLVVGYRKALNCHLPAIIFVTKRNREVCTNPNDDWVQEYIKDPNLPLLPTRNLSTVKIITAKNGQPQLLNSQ
In short: as §2

[18] = biological target: T3, CCL18_HUMAN; experiment: Biolayer interferometry (BLI) binding
In short: as §2

[19] = biological target: T11, CCL1_HUMAN (Homo sapiens, UniProt P22362); experiment: Biolayer interferometry (BLI) binding
T11 sequence (P22362 24-96): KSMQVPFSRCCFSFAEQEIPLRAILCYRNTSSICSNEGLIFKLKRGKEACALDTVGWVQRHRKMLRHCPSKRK
In short: as §2

T1 sequence (P51671 24-97): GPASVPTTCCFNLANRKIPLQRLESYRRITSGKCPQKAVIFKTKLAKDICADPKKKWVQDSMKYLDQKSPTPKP

B1: P1215_AMBPA: tick CKBP, Amblyomma parvum (protein, listed as Amblyomma parvum)
chain: KTDTKNAAGELPPKVVIPGCEDPATTKAPLPDEPPYYGITIDKDGCQRKVLGSSQRQQRKVQNGRKLDGKKRGRRPVFVDLELTVDCKRKCNGTYSQLPDGENCLVSDGYPYGRWGTIKGGCYQGNCSSGQCHRGEKKVNCYLPKNITNDVPKSLNLAE
For B1, the “Binding to CCL11_HUMAN, YSD” value [1] was “YES (An arbitrary threshold of >3 fold over background mean fluorescence intensity was chosen to describe confirmed re-tests. Where binding was detected data are indicated as “YES”)”, the “Binding to CCL5_HUMAN, YSD” value [2] was “YES (An arbitrary threshold of >3 fold over background mean fluorescence intensity was chosen to describe confirmed re-tests. Where binding was detected data are indicated as “YES”)” and the “Binding to CXCL12_HUMAN, YSD” value [3] was “YES (An arbitrary threshold of >3 fold over background mean fluorescence intensity was chosen to describe confirmed re-tests. Where binding was detected data are indicated as “YES”)”. The “Binding to CCL18_HUMAN, YSD” value [4] was “YES (An arbitrary threshold of >3 fold over background mean fluorescence intensity was chosen to describe confirmed re-tests. Where binding was detected data are indicated as “YES”)”.

B2: P1220_IXORI: tick CKBP, Ixodes ricinus (protein, listed as Ixodes ricinus)
chain: GSTPSAMKTEDILKVLGSTSSLENHTDSSHCRYQELLDITKNIENAGFLAINCQRSCPNGKQTMVEGYGCIFKIKHATKRGKVKVKEGSCRKGACVRGSTRPPWRLLVLLGESKEEEFL
For B2, the “Binding to CCL25_HUMAN, YSD” value [5] was “YES (An arbitrary threshold of >3 fold over background mean fluorescence intensity was chosen to describe confirmed re-tests. Where binding was detected data are indicated as “YES”)”.

B3: P985_AMBPA: tick CKBP, Amblyomma parvum (protein, listed as Amblyomma parvum)
chain: DEESEELGASTDVDYEELDANCTCPAPALTSTRNNKHYPLGCIYNCSSYNCTIPDGTPCYVLTLGEVKEHLQIGSTVPNCTCGLCRNGTCVSNGTVEECFAVEEIEET
Molecule B3 has a Kd [6] of 8.9 nM, a Kd [7] of 21 nM and a Kd [8] of 17 nM. For the same molecule, the Kd [9] was 6.5 nM, the Kd [10] was 8 nM and the Kd [11] was 46 nM. For the same molecule, the Kd [12] was 7.5 nM, the Kd [13] was 41 nM and the Kd [14] was 3.5 nM. The Kd [15] was 89 nM, the Kd [16] was 61 nM and the Kd [17] was 45 nM. The Kd [18] was 430 nM and the Kd [19] was 8.3 nM.
